Results as given in patent publication US20050049403A1 (CAMBRIDGE ANTIBODY TECHNOLOGY, published 2005).

Legend:
Test in all cases: phage ELISA on coated 6B1 IgG4 after four rounds of panning
[1] = molecular target: T1, phage peptide display Clone 2 (DPMDMVLKLC)
T1 peptide: DPMDMVLKLC
Procedure: (§1) Purified 6B1 IgG4 antibody at 10 μg/ml in 4 ml of PBS was coated onto a plastic tube (Nunc; maxisorp) by incubating overnight at 4° C. After washing and blocking with MPBS (see Example 1) an aliquot of the peptide library containing 5×10¹³ phage in 4 ml 3% MPBS was added to the tube and incubated at room temperature for 1.5 hours. The tube was washed 10 times with PBST(0.1%), then 10 times with PBS. Bound phage particles were eluted from the tube by adding 4 ml of 100 mM triethylamine and incubating the tube stationary for 10 minutes at room temperature. The eluted phage were then added to a tube containing 2 ml 1M-Tris.HCl (pH7.4) and 10 ml 2YT broth. The phage were then added to 20ml of logarithmically growing E. coli TG1 cells and grown for 1 hour shaking at 100 rpm at 37° C. The infected cells were then plated on 2YT agar medium with 15 μg/ml tetracycline in 243 mm×243 mm dishes (Nunc). Plates were incubated at 30° C. for 18 hours. Colonies were scraped off the plates into 10 ml 2TY broth containing 15% (v/v) glycerol for storage at −70° C.
(§2) These clones were screened for clones that bound specifically to the antibody 6B1 in ELISA. Cells from the master plates were used to inoculate 96 well tissue culture plates containing 100 μl 2YT broth (containing 15 μg/ml tetracycline) per well and grown overnight with gentle shaking at 100 rpm at 30° C. The plates were then centrifuged at 2000 rpm. The 100 μl phage supernatants from each well were recovered and each was mixed with 100 μl of 4% skimmed milk powder in 2×PBS. 100 μl of each of these was then assayed by phage ELISA. Purified 6B1 IgG4 antibody at 10 μg/ml in PBS was coated onto flexible microtitre plates by incubating overnight at 4° C. Control plates coated with an irrelevant IgG4 antibody at 10 μg/ml were also prepared. The ELISAs were performed as described in Example 1, and visualised with the chromagenic substrate pNPP (Sigma).

[2] = molecular target: T2, phage peptide display Clone 1 (RQLSLQQRMH)
T2 peptide: RQLSLQQRMH
Procedure: as §1, §2

[3] = molecular target: T3, phage peptide display clone VESTSLQFRG (fourth clone, printed as Clone 3)
T3 construct: also called Clone 3 (second of that label)
T3 peptide: VESTSLQFRG
Procedure: as §1, §2

[4] = molecular target: T4, phage peptide display Clone 3 (WSEFMRQSSL)
T4 peptide: WSEFMRQSSL
Procedure: as §1, §2

Measured: binding result

B1: 6B1 IgG4 (antibody, V domains shown)
VH: EVQLVESGGGVVQPGRSLRLSCAASGFTFSSYGMHWVRQAPGKGLEWVAVIWYDGSNKYYADSVKGRFTISRDNSKNTLYLQMDSLRAEDTAVYYCGRTLESSLWGQGTLVTVSS
VL: SSELTQDPAVSVALGQTVRITCQGDSLRSYYASWYQQKPGQAPVLVIYGKNNRPSGIPDRFSGSSSGNTASLTITGAQAEDEADYYCNSRDSSSTHRGVFGGGTKLTVLG
notes: Whole antibody: human gamma 4 and human lambda constant regions; FITC-labelled in the human tissue study; also called antibody 6B1
binds: all assays above
